# Test results reported in PMC4447253 (mBio, 2015).
# B1: TraR-His (GntR-type transcriptional repressor TraR of plasmid pSVH1) (natural protein, Streptomyces venezuelae (plasmid pSVH1), UniProt Q3LAJ7 1-252, looked up)
# chain: MTSTQSEKRVTARSIADDLRGKIRSGQLLPGSVLPTTKALAEEHGVSSKTVSAGIDLLKLEGLVVGEQGGRRRVRADRPITWNLTRFERGARRDSAVMDDWSTAISEAGRTPEQHVSVSRETANSDIAGWLQVPVGDDVVKRVRMRTVDGRPFQLSTSYFPKHVAVGTLLEEPGDVAVPGGILSHIGHPQLRVRDEISVRMPSPEESQELALPPGTPVAQHVRVGYGETGPVRVMVTIAPGDRHTLVYELEV
# B2: SpdB2-His (SpdB2 of plasmid pSVH1) (natural protein, Streptomyces venezuelae (plasmid pSVH1), UniProt Q3LAJ4 1-409, looked up)
# chain: MSTYREEKRLDDQLRAEQKLRNEQLRAEQAREDRRLELEATQQRDAARAEEKRKDAEAKRRQEQAEKKARAAEQQAKKAAAAAKRAKLVRWLKANPATLFVGFVMVASIVPALLSQIGALTGATVAAPMAGLLAAMLEGGAWAITFMGKQAEDAGREPRKYRIGTWAVATVAAAVNFWHGLEAYGEHPWVAFVLGASSLFAIYIWDLKTHGSHGKTKEQKQAEKARRAHVSARRKHHPEIVEQAVKLQAALPYGVLDDESAFAAAWRIHTGAEPGLSAQLYATATEAVLQLGAAFELGDNVRDELLETGFKAARLNPFAELAQVPGSQAGLEENAPQGPASALRPDAPEGKSPEELEALLPDAVAAAAELVAEGRQISAHGLAKKLQIRRVDAALLRDRVIEQRRLHVA
# Key:
# [1] = target: the molecule itself; assay: cross-linking
# [2] = target: the molecule itself; assay: native gel or EMSA
protein,measurement,setting,value
B1,stoichiometry N,[1],2
B2,binding result,[2],binds
